The data set deals with GstCCA (CCA-adding enzyme, tRNA nucleotidyltransferase) (Geobacillus stearothermophilus). Nature of the data set: EMSA. Particulars: 10 mM MgCl2; 37 °C; EMSA: 50 mM glycine/NaOH pH 8.5, 10 mM MgCl2, 2 mM DTT, 0.3 pmol tRNA, 0-5 µM enzyme, 10 min at 37 °C (GstCCA) or 4 °C and 30 °C (PhaCCA); 5% native PAGE at …. (In general: Mobility shift assays separate free from complexed probe on a gel.)

The values below come from PMC8563995, “CCA-addition in the cold: Structural characterization of the psychrophilic CCA-adding enzyme from the permafrost bacterium Planococcus halocryophilus” (Computational and Structural Biotechnology Journal, 2021).

The term Kd denotes the free concentration of one partner at which half of the binding sites on the other are occupied at equilibrium, for simple one-to-one binding. Read a low Kd as a tighter complex. Substance yeast tRNAPhe lacking the CCA terminus registered a Kd of 1300 nM.
